Data reported in patent publication US20080160035A1 (Regeneron, published 2008).

Key:
dimeric hIL-4R-hFc [1] = target: T1, dimeric hIL-4R-hFc (human, UniProt P24394 26-232); assay: ELISA; antibody titrated against 25 pM hIL-4R-Fc, free receptor caught on hIL-4 plate
T1 construct: also called hIL-4R-Fc; not shown: human Fc (hFc)
T1 sequence: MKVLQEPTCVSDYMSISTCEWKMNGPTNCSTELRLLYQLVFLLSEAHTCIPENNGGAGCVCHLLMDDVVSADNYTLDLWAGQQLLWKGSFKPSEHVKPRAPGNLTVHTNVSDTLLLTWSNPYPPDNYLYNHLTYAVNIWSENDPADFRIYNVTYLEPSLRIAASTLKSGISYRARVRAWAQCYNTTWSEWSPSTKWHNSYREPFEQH
Method: Concentration of free hIL-4R-Fc (no antibody bound) was determined using a hIL-4R-specific sandwich ELISA. […] After a one-hour incubation at room temperature, the detection plate was washed and plate-bound hIL-4R-hFc was detected using HRP conjugated goat anti-hFc polyclonal antibodies and developed using colorimetric substrates such as BD OptEIA™ (BD Biosciences Pharmingen, San Diego, Calif.). After the reaction was stopped with 1 M phosphoric or sulfuric acid, absorbances at 450 nm were recorded and the data were analyzed using GraphPad™ Prism software.

dimeric hIL-4R-hFc [2] = target: T1, dimeric hIL-4R-hFc; assay: SPR; reduction of hIL-4 (50 nM) binding to captured hIL-4R-hFc after antibody; competitor hIL-4
From the text: Purified hIL-4R-hFc molecules were captured by goat anti-human IgG polyclonal antibody immobilized on CM-5 to a density of 260 RU, to prepare a receptor-coated surface.

[3] = target: T2, monomeric hIL-4R (R&D Systems) (human, UniProt P24394 26-231); assay: SPR (BIAcore 2000); antibody captured, monomeric hIL-4R injected
T2 construct: Bought (R&D Systems); also called hIL-4R monomer
T2 sequence: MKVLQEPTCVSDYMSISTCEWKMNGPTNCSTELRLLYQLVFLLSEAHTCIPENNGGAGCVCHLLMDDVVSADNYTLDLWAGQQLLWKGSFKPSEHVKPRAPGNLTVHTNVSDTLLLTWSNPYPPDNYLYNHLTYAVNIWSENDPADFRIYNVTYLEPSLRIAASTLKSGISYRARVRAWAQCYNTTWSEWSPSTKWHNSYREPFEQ
Method: (§1) Binding affinity (KD) of selected antibodies with respect to hIL-4R was determined using a real-time biosensor surface plasmon resonance assay (BIAcore™ 2000). Briefly, antibody was captured on a goat anti-mouse (GAM) IgG polyclonal antibody surface created through direct chemical coupling of the GAM IgG to a BIAcore™ chip to form a captured antibody surface. […] Binding of antigen to antibody and dissociation of the bound complex, were monitored in real time. Equilibrium dissociation constants (KD) and dissociation rate constants were ascertained by performing kinetic analysis using BIA evaluation software. BIA evaluation software was also used to calculate the half-life of antigen/antibody complex dissociation (T_{1/2}). […] The binding affinity of anti-hIL-4R antibodies to either mouse or monkey (Macaca fascicularis) IL-4R was also tested.

dimeric hIL-4R-hFc [4] = target: T1, dimeric hIL-4R-hFc; assay: SPR (BIAcore 2000); antibody captured, dimeric hIL-4R-hFc injected
Method: as §1

[5] = target: T3, hIL-4R on cells (STAT6-transfected HEK293, TF1, TF1/A12) (human, UniProt P24394 26-825); assay: cell-based or functional assay
T3 sequence (looked up): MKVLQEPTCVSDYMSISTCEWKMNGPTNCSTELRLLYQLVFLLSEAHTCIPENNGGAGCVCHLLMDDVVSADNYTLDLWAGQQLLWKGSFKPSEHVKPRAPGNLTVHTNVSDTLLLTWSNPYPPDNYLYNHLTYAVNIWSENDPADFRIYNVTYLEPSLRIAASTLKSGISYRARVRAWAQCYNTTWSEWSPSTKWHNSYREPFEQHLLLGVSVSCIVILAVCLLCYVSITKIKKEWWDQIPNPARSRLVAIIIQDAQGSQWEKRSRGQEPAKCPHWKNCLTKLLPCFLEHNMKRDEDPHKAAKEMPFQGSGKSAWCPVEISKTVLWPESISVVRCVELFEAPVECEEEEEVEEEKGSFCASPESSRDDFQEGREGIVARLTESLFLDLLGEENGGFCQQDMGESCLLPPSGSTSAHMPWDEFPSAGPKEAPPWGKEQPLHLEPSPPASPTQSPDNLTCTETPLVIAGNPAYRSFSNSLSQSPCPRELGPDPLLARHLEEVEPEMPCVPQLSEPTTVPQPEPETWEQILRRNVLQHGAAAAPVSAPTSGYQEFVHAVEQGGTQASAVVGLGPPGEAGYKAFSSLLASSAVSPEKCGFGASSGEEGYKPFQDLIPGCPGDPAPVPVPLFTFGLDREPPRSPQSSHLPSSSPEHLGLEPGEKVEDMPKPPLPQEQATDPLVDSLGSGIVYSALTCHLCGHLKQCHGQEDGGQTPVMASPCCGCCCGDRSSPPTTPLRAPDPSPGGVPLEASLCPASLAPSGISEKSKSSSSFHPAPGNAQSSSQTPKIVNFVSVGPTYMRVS

mouse IL-4R = target: T4, mouse IL-4R (mouse, UniProt P16382 26-233, limits assumed); assay: binding affinity test of Example 2 (method not restated)
T4 sequence (looked up): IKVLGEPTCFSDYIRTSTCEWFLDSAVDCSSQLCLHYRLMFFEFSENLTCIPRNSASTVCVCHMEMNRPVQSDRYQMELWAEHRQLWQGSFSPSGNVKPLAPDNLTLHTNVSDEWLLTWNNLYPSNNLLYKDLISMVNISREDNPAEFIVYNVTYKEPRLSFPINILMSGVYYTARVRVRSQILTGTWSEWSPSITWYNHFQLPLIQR

[6] = target: T3, hIL-4R on cells (STAT6-transfected …); assay: cell-based or functional assay; remark: listed apart in the source

B1: VAB 16G1-1 (antibody, V domains shown)
VH: EVKLAESGGGLVQPGGSLRLSCAASGFTFSSHWMNWVRQAPGKGLEWVANIKQDGSDKYYVDSVKGRFTISRDNAKNSLYLQLNSLIAEDTAVYYCARDRGVRPPRGAFDIWGQGTMVTVSS
VL: DIQMTQSPSSVSASVGDRVTITCRASQGISSWLAWYQQKPGKAPKLLIYAASSFQSGVPSRFSGSGSGTDFTLTISSLQPEDFATYFCQQANSFPLTFGGGTTVEIK
notes: 403/405; 407/409 without saying which was assayed; Apparently tested with mouse constant region (anti-mouse IgG capture/detection)
IC50 (dimeric hIL-4R-hFc [1]): 0.018 nM | % Inhibition (BIAcore) (dimeric hIL-4R-hFc [2]): 92% | Kd [3]: 0.93 nM | T1/2 monomeric [3]: 0.25 h | Kd (dimeric hIL-4R-hFc [4]): 0.038 nM | T1/2 dimeric (dimeric hIL-4R-hFc [4]): 7.3 h | STAT6 Bioassay IC50 (HEK293 STAT6 luciferase, 10 pM hIL-4) [5]: 0.14 nM | TF1/A12 Bioassay IC50 (proliferation, 20 pM hIL-4) [5]: 0.7 nM | TF1 Bioassay IC50 (proliferation, 50 pM hIL-4) [5]: 0.12 nM | binding result (mouse IL-4R): no binding | STAT6 Bioassay IC50 (HEK293 STAT6 luciferase, 40 pM hIL-13) [6]: 0.09 nM | TF1 Bioassay IC50 (proliferation, 150 pM hIL-13) [6]: 0.44 nM

B2: VX 3F7-6 (antibody, V domains shown)
VH: EVQLVESGGGLVQPGGSLRLSCAASGFTFSSFWMTWVRQAPGKGLEWVANIKQDGSEKYYVDSVKGRFTISRDNAKNSLYLQMNSLRAEDTAVYYCARDPGRTMVRGGIRYYYGMDVWGQGTTVTVSS
VL: DIQMTQSPSSVSASVGDRVTISCRASQGVSSWLAWYQQKPGNAPKLLISAASSIQSGVPSRFSGSGSGTDFTLTISSLQPEDFATYYCQQANSFPLTFGGGTKVEIK
notes: 395/397; 399/401 without saying which was assayed; Apparently tested with mouse constant region (anti-mouse IgG capture/detection)
IC50 (dimeric hIL-4R-hFc [1]): 0.274 nM | % Inhibition (BIAcore) (dimeric hIL-4R-hFc [2]): 86% | Kd [3]: 3.91 nM | T1/2 monomeric [3]: 0.267 h | Kd (dimeric hIL-4R-hFc [4]): 0.654 nM | T1/2 dimeric (dimeric hIL-4R-hFc [4]): 2.7 h | STAT6 Bioassay IC50 (HEK293 STAT6 luciferase, 10 pM hIL-4) [5]: > 10 nM | TF1/A12 Bioassay IC50 (proliferation, 20 pM hIL-4) [5]: > 50 nM | binding result (mouse IL-4R): no binding | STAT6 Bioassay IC50 (HEK293 STAT6 luciferase, 40 pM hIL-13) [6]: > 10 nM

B3: VAB 16F3-1 (antibody, V domains shown)
VH: QVQLVQSGAEVKKPGASVKVSCKASGYTFNSYGISWVRQAPGQGLEWMGWIRTYNGNTNYAQKLQGRVTMTTDTSTSTAYMELRSLRSDDTAVYYCARDEARIVVAGTTPYYYGMDVWGQGTTVTVSS
VL: DIQMTQSPSSVSASVGDRVTITCRASQDISIWLAWYQQSPGKAPKLLINVASRLQSGVPSRFSGSGSGTDFTLTINSLQPEDFVTYYCQQANSFPITFGQGTRLATK
notes: Apparently tested with mouse constant region (anti-mouse IgG capture/detection)
IC50 (dimeric hIL-4R-hFc [1]): 0.019 nM | % Inhibition (BIAcore) (dimeric hIL-4R-hFc [2]): 97% | Kd [3]: 0.02 nM | T1/2 monomeric [3]: 4.23 h | Kd (dimeric hIL-4R-hFc [4]): 0.003 nM | T1/2 dimeric (dimeric hIL-4R-hFc [4]): 41 h | STAT6 Bioassay IC50 (HEK293 STAT6 luciferase, 10 pM hIL-4) [5]: 0.032 nM | TF1/A12 Bioassay IC50 (proliferation, 20 pM hIL-4) [5]: 0.067 nM | TF1 Bioassay IC50 (proliferation, 50 pM hIL-4) [5]: 0.046 nM | binding result (mouse IL-4R): no binding | STAT6 Bioassay IC50 (HEK293 STAT6 luciferase, 40 pM hIL-13) [6]: 0.018 nM | TF1 Bioassay IC50 (proliferation, 150 pM hIL-13) [6]: 0.079 nM

B4: VAB 10C1-5 (antibody, V domains shown)
VH: QVQLVETGGDLVRPGGSLRLSCTASGFTLSDYYMSWIRQAPGKGLEWVSYIRRSGNTIYYADSVKGRFTISRDNAKNSLYLQMNSLRAEDTAVYYCARGGDWADVWGQGTTVTVSS
VL: DIQMTQSPSSLSASVGDRVTITCRASQGISIYLAWFQQKPGKAPKSLIYAASSLQRGVPSKFSGSGSGTDFTLTISSLQPEDFATYYCQQYNSYPYTFGQGTKLEIK
notes: as for B3
IC50 (dimeric hIL-4R-hFc [1]): 0.034 nM | % Inhibition (BIAcore) (dimeric hIL-4R-hFc [2]): 93% | Kd [3]: 4.47 nM | T1/2 monomeric [3]: 0.1 h | Kd (dimeric hIL-4R-hFc [4]): 0.051 nM | T1/2 dimeric (dimeric hIL-4R-hFc [4]): 6.7 h | STAT6 Bioassay IC50 (HEK293 STAT6 luciferase, 10 pM hIL-4) [5]: 1.9 nM | TF1/A12 Bioassay IC50 (proliferation, 20 pM hIL-4) [5]: 22.8 nM | binding result (mouse IL-4R): no binding | STAT6 Bioassay IC50 (HEK293 STAT6 luciferase, 40 pM hIL-13) [6]: 1 nM

B5: VAB 15C8-17 (antibody, V domains shown)
VH: QVQLVESGGGLVQPGGSLRLSCAVSGFTISDHYMSWIRQAPGKGLEWISYISSSGSKIYYADSVKGRFTISRDNAKNSLFLQMNSLRAEDTAVYYCARTRQLVGDYWGQGTLVTVSS
VL: DIQLTQSPSFLSASVGDRVTITCWASQGISSYLAWYQQKPGKAPKLLIFAASTLQSGVPSRFSGSGSGTEFTLTISSLQPEDFATYYCQQLNSYPLTFGGGTKVEIR
notes: as for B3
IC50 (dimeric hIL-4R-hFc [1]): 0.029 nM | % Inhibition (BIAcore) (dimeric hIL-4R-hFc [2]): 97% | Kd [3]: 0.82 nM | T1/2 monomeric [3]: 0.25 h | Kd (dimeric hIL-4R-hFc [4]): 0.045 nM | T1/2 dimeric (dimeric hIL-4R-hFc [4]): 3.6 h | STAT6 Bioassay IC50 (HEK293 STAT6 luciferase, 10 pM hIL-4) [5]: 0.32 nM | TF1/A12 Bioassay IC50 (proliferation, 20 pM hIL-4) [5]: 4.7 nM | TF1 Bioassay IC50 (proliferation, 50 pM hIL-4) [5]: 0.44 nM | binding result (mouse IL-4R): no binding | STAT6 Bioassay IC50 (HEK293 STAT6 luciferase, 40 pM hIL-13) [6]: 0.2 nM | TF1 Bioassay IC50 (proliferation, 150 pM hIL-13) [6]: 2.6 nM

B6: VAB 10G8-19 (antibody, V domains shown)
VH: QVQLVQSGAEVKKPGASVKVSCKASRYTFTSYDINWVRQATGQGLEWMGWMNPNSGNTGYAQKFQGRVTMTRNTSTSTAYMELSSLRSEDTAVYYCARVRRFFDYWGQGTLVTVSS
VL: DIQLTQSPSFLSASVGDRVTITCWASQGIISYLAWYQQKPGKAPKLLIYAASTLHSGVPSRFSGSGSGTEFTLTISSLQPEDFATYYCHQLKSYPITFGQGTRLEIK
notes: as for B3
IC50 (dimeric hIL-4R-hFc [1]): 0.018 nM | % Inhibition (BIAcore) (dimeric hIL-4R-hFc [2]): 85% | Kd [3]: 11.4 nM | T1/2 monomeric [3]: 0.0333 h | Kd (dimeric hIL-4R-hFc [4]): 0.052 nM | T1/2 dimeric (dimeric hIL-4R-hFc [4]): 2 h | STAT6 Bioassay IC50 (HEK293 STAT6 luciferase, 10 pM hIL-4) [5]: 1.8 nM | TF1/A12 Bioassay IC50 (proliferation, 20 pM hIL-4) [5]: 12.8 nM | binding result (mouse IL-4R): no binding | STAT6 Bioassay IC50 (HEK293 STAT6 luciferase, 40 pM hIL-13) [6]: 0.97 nM
